Data published in PMC6277958, “Crystal structure of the Agrobacterium tumefaciens type VI effector–immunity complex” (Acta Crystallographica. Section F, Structural Biology …, 2018).

Target: the molecule itself
Assay: SEC; AtTai4 alone in solution; conditions not told (purification used a HiLoad Superdex 75 column)

B1: T6SS amidase immunity protein 4 (Tai4) from Agrobacterium tumefaciens, residues 26–129, expressed alone from pCold-GST (natural protein, UniProt A9CGG9 26-129, looked up)
chain: AERTWIFSGAELKQAIEGKLAPDVSDPEMRRLVSVAKSSAYIAGVADLTSGSDWCGAGAVAPHELTDRIYTYLGDMPAEKLDEQAATLVREALKVSFPCEQKSN
notes: codon-optimized synthetic gene; His6-GST tag removed with Turbo3C protease; Disulfide bond between Cys80 and Cys124 in each protomer; also called AtTai4; ATU4346; source: E. coli Rosetta 2 (DE3), purified (Ni-NTA, Resource Q, HiLoad Superdex 75); not shown: His6, N-terminal, cleaved; GST, N-terminal, cleaved
  stoichiometry N: 2
